The results in this text go back to US6670167B1, “Catalytic domain of the human effector cell cycle checkpoint protein kinase materials and methods for identification of inhibitors thereof” (Agouron Pharmaceuticals, Inc., priority 1999, dated 2003).

The subject of this series is Chk1. The series is described as follows: Chk1 kinase activity of enzyme preparations, ADP production coupled through pyruvate kinase and lactate dehydrogenase (Syntide-2 substrate). It is filed as biochemical, human. The note with it: for Rate/min: prep concentration 75 nM (HA2-013), 2 nM (HA2-022), 7.3 nM (HB2-061), 0.125 mM Syntide-2, 0.15 mM ATP; for Activity: relative to full length Chk1 (control = 1). As to the method: The kinase activity of the hChk1 was determined by monitoring the ADP production through enzymatic actions of pyruvate kinase and lactate dehydrogenase. […] Unlike the other forms of Chk1 which have proven difficult to work with (isolate, purify, crystallize, etc), the 1-289 kinase domain form of the human Chk1 enzyme facilitated crystallography, enzyme characterization, and high throughput screening of inhibitors. In particular, the Chk1 kinase domain was used to determine its 3-dimensional structure, which provides unique structural information for inhibitor design for therapeutic development.
The enzymatic activity of a kinase is measured by its ability to catalyze the transfer of a phosphate residue from a nucleoside triphosphate to an amino acid side chain in a selected protein target. The conversion of ATP to ADP generally accompanies the catalytic reaction. Herein, a synthetic substrate peptide, Syntide-2, having amino acid sequence PLARTLSVAGLPGKK (SEQ ID NO. 11) was utilized. The production of ADP from ATP that accompanies phosphoryl transfer to the substrate was coupled to oxidation of NADH using phosphoenolpyruvate (PEP) through the actions of pyruvate kinase (PK) and lactic dehydrogenase (LDH). The oxidation of NADH was monitored by following the decrease of absorbance at 340 nm (e340=6.22 cm−1 mM−1) using a HP8452 spectrophotometer. Typical reaction solutions contained: 4 mM PEP, 0.15 mM NADH, 28 units of LDH/mL, 16 units of PK/mL, 3 mM DTT, 0.125 mM Syntide-2, 0.15 mM ATP and 25 mM MgCl2 in 50 mM TRIS pH 7.5; 400 mM NaCl. Assays were initiated with 10 nM of kinase domain of Chk1, KH289. Ki values were determined by measuring initial enzyme activity in the presence of varying concentrations of inhibitors. The data were analyzed using Enzyme Kinetic and Kaleidagraph software.
The table below (Table 3) compares three different preparations of Chk1. The first preparation is the full length form, which comprises amino acids 1-476 of SEQ ID NO. 2. The next preparation contains proteolytically cleaved fragments, a mixture of Chk1 protein fragments obtained from the full-length protein during fermentation. The exact enzymes involved and cleavage site generated for these fragments is unknown. […] The third preparation is the kinase domain of amino acids 1-289 of SEQ ID NO. 2 (KH289) As mentioned above, the assay used detects the ADP product by coupling through the enzymatic actions of pyruvate kinase and lactate dehydrogenase.

Chain of Chk1 (O14757 9-265 limits assumed): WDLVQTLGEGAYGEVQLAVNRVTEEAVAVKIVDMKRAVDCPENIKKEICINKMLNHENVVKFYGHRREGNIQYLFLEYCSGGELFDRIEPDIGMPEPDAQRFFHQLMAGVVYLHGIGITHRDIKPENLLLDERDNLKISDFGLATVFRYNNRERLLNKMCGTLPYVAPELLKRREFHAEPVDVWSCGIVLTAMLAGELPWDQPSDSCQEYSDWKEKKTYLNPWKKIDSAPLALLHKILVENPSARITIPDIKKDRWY

B1: HB2-061: preparation of the kinase domain of amino acids 1-289 of SEQ ID NO. 2 (KH289) (protein, listed as Homo sapiens)
chain: MAVPFVEDWDLVGTLGEGAYGEVQLAVNRVTEEAVAVKIVDMKRAVDCPENIKKEICINKMLNHENVVKFYGHRREGNIQYLFLEYCSGGELFDRIEPDIGMPEPDAQRFFHQLMAGVVYLHGIGITHRDIKPENLLLDERDNLKISDFGLATVFRYNNRERLLNKMCGTLPYVAPELLKRREFHAEPVDVWSCGIVLTAMLAGELPWDQPSDSCQEYSDWKEKKTYLNPWKKIDSAPLALLHKILVENPSARITIPDIKKDRWYNKPLKKGAKRPRVTSGGVSESPSG
Turning to B1, the Rate/min turned out to be 0.0200 and the Activity result is recorded as “+10 fold”.

B2: HA2-013: preparation of the full length form of human Chk1, amino acids 1-476 of SEQ ID NO. 2 (protein, listed as Homo sapiens)
chain: MAVPFVEDWDLVGTLGEGAYGEVQLAVNRVTEEAVAVKIVDMKRAVDCPENIKKEICINKMLNHENVVKFYGHRREGNIQYLFLEYCSGGELFDRIEPDIGMPEPDAQRFFHQLMAGVVYLHGIGITHRDIKPENLLLDERDNLKISDFGLATVFRYNNRERLLNKMCGTLPYVAPELLKRREFHAEPVDVWSCGIVLTAMLAGELPWDQPSDSCQEYSDWKEKKTYLNPWKKIDSAPLALLHKILVENPSARITIPDIKKDRWYNKPLKKGAKRPRVTSGGVSESPSGFSKHIQSNLDFSPVNSASSEENVKYSSSQPEPRTGLSLWDTSPSYIDKLVQGISFSQPTCPDHMLLNSGLLGTPGSSQNPWQRLVKRMTRFFTKLDADKSYQCLKETCEKLQYQWKKSCMNQVTISTTDRRNNKLIFKVNLLEMDDKILVDFRLSKGDGLEFKRHFLKIKGKLIDIVSSQKVWLPAT
On to B2, for which the Rate/min is on record as 0.0190 and the Activity is given as 1 (control) fold.

B3: KH289: human Chk1 kinase domain (AA 1-289), C-terminal 6xHis-tag (protein)
chain: MAVPFVEDWDLVGTLGEGAYGEVQLAVNRVTEEAVAVKIVDMKRAVDCPENIKKEICINKMLNHENVVKFYGHRREGNIQYLFLEYCSGGELFDRIEPDIGMPEPDAQRFFHQLMAGVVYLHGIGITHRDIKPENLLLDERDNLKISDFGLATVFRYNNRERLLNKMCGTLPYVAPELLKRREFHAEPVDVWSCGIVLTAMLAGELPWDQPSDSCQEYSDWKEKKTYLNPWKKIDSAPLALLHKILVENPSARITIPDIKKDRWYNKPLKKGAKRPRVTSGGVSESPSGHHHHHH
Turning to B3, the “enzymatic activity compared with the full length protein” value (ADP production via pyruvate kinase and lactate dehydrogenase) is recorded as “higher enzymatic activity than the full length protein”.
